# Data reported in IntAct's records for PubMed 23263282.
# B1: Telomere length regulation protein TEL2 homolog (Homo sapiens), Q9Y4R8 (parent)
# chain: MEPAPSEVRLAVREAIHALSSSEDGGHIFCTLESLKRYLGEMEPPALPREKEEFASAHFSPVLRCLASRLSPAWLELLPHGRLEELWASFFLEGPADQAFLVLMETIEGAAGPSFRLMKMARLLARFLREGRLAVLMEAQCRQQTQPGFILLRETLLGKVVALPDHLGNRLQQENLAEFFPQNYFRLLGEEVVRVLQAVVDSLQGGLDSSVSFVSQVLGKACVHGRQQEILGVLVPRLAALTQGSYLHQRVCWRLVEQVPDRAMEAVLTGLVEAALGPEVLSRLLGNLVVKNKKAQFVMTQKLLFLQSRLTTPMLQSLLGHLAMDSQRRPLLLQVLKELLETWGSSSAIRHTPLPQQRHVSKAVLICLAQLGEPELRDSRDELLASMMAGVKCRLDSSLPPVRRLGMIVAEVVSARIHPEGPPLKFQYEEDELSLELLALASPQPAGDGASEAGTSLVPATAEPPAETPAEIVDGGVPQAQLAGSDSDLDSDDEFVPYDMSGDRELKSSKAPAYVRDCVEALTTSEDIERWEAALRALEGLVYRSPTATREVSVELAKVLLHLEEKTCVVGFAGLRQRALVAVTVTDPAPVADYLTSQFYALNYSLRQRMDILDVLTLAAQELSRPGCLGRTPQPGSPSPNTPCLPEAAVSQPGSAVASDWRVVVEERIRSKTQRLSKGGPRQGPAGSPSRFNSVAGHFFFPLLQRFDRPLVTFDLLGEDQLVLGRLAHTLGALMCLAVNTTVAVAMGKALLEFVWALRFHIDAYVRQGLLSAVSSVLLSLPAARLLEDLMDELLEARSWLADVAEKDPDEDCRTLALRALLLLQRLKNRLLPPASP
# partner: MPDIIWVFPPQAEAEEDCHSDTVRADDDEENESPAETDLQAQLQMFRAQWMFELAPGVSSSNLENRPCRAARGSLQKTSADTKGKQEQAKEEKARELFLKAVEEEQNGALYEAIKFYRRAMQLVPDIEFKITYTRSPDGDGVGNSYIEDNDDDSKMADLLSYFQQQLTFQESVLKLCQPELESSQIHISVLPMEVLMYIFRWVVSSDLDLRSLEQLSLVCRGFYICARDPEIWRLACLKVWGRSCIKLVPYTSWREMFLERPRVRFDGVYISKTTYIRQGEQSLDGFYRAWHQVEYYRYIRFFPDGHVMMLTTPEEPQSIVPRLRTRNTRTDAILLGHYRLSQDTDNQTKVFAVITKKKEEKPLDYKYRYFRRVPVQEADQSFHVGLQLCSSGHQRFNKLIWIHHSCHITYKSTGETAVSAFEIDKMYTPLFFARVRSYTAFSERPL
# B2: TELO2-interacting protein 1 homolog (Homo sapiens), O43156 (parent)
# chain: MAVFDTPEEAFGVLRPVCVQLTKTQTVENVEHLQTRLQAVSDSALQELQQYILFPLRFTLKTPGPKRERLIQSVVECLTFVLSSTCVKEQELLQELFSELSACLYSPSSQKPAAVSEELKLAVIQGLSTLMHSAYGDIILTFYEPSILPRLGFAVSLLLGLAEQEKSKQIKIAALKCLQVLLLQCDCQDHPRSLDELEQKQLGDLFASFLPGISTALTRLITGDFKQGHSIVVSSLKIFYKTVSFIMADEQLKRISKVQAKPAVEHRVAELMVYREADWVKKTGDKLTILIKKIIECVSVHPHWKVRLELVELVEDLLLKCSQSLVECAGPLLKALVGLVNDESPEIQAQCNKVLRHFADQKVVVGNKALADILSESLHSLATSLPRLMNSQDDQGKFSTLSLLLGYLKLLGPKINFVLNSVAHLQRLSKALIQVLELDVADIKIVEERRWNSDDLNASPKTSATQPWNRIQRRYFRFFTDERIFMLLRQVCQLLGYYGNLYLLVDHFMELYHQSVVYRKQAAMILNELVTGAAGLEVEDLHEKHIKTNPEELREIVTSILEEYTSQENWYLVTCLETEEMGEELMMEHPGLQAITSGEHTCQVTSFLAFSKPSPTICSMNSNIWQICIQLEGIGQFAYALGKDFCLLLMSALYPVLEKAGDQTLLISQVATSTMMDVCRACGYDSLQHLINQNSDYLVNGISLNLRHLALHPHTPKVLEVMLRNSDANLLPLVADVVQDVLATLDQFYDKRAASFVSVLHALMAALAQWFPDTGNLGHLQEQSLGEEGSHLNQRPAALEKSTTTAEDIEQFLLNYLKEKDVADGNVSDFDNEEEEQSVPPKVDENDTRPDVEPPLPLQIQIAMDVMERCIHLLSDKNLQIRLKVLDVLDLCVVVLQSHKNQLLPLAHQAWPSLVHRLTRDAPLAVLRAFKVLRTLGSKCGDFLRSRFCKDVLPKLAGSLVTQAPISARAGPVYSHTLAFKLQLAVLQGLGPLCERLDLGEGDLNKVADACLIYLSVKQPVKLQEAARSVFLHLMKVDPDSTWFLLNELYCPVQFTPPHPSLHPVQLHGASGQQNPYTTNVLQLLKELQ
# partner: B1 partner
# Variants of: B1
# Conditions: with fbx9_human FBXO9, Q9UK97
row,effect of a mutation on the interaction,Variant
1,decreasing interaction strength,S485A;S487A

# Variants of: B2
# Conditions: with fbx9_human FBXO9, Q9UK97
row,effect of a mutation on the interaction,Variant
1,disrupting interaction strength,S828A
